Test results reported in the supplement of paper PMC10567573.

B1: INTS3 (parent)
chain: EEITEESLEESVGKPLYLIFRNLC

Variants of: B1
Test: protein stability index of a GFP-peptide fusion (GPS, HEK-293T) (PSI 1-6); higher = more stable
Conditions: c terminus: a fixed tail appended
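Further: lentivirally expressed fusions sorted by FACS into six bins by GFP to DsRed ratio, PSI derived from sequencing read proportions per bin multiplied by bin number.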

Variant | protein stability index
L18P | 3.69
L18S | 3.37
L18V | 2.7
L18D | 3.35
L18G | 3.71
L18K | 3.1
L18Q | 3.21
L18N | 3.38
L18Y | 2.93
L18W | 2.16
L18F | 2.3
L18C | 2.7
L18A | 2.92
L18E | 3.12
L18M | 3.38
L18I | 2.72
L18R | 2.82
L18H | 3.4
L18T | 3.37
K14Y | 2.47
K14A | 2.96
K14P | 3.67
K14C | 3.5
K14V | 2.6

Variant | protein stability index
K14H | 3.2
K14G | 2.96
K14W | 2.39
K14D | 3.48
K14I | 2.78
K14N | 3.52
K14M | 2.48
K14R | 3.31
K14F | 2.25
K14Q | 3.19
K14S | 2.94
K14L | 3.3
K14T | 3.38
K14E | 3.54
S7T | 3.13
S7P | 3.02
S7A | 2.88
S7N | 2.98
S7D | 2.87
S7V | 3.02
S7E | 2.77
S7R | 2.98
S7K | 2.55
S7H | 3.13

Variant | protein stability index
S7F | 2.33
S7M | 2.47
S7Y | 2.15
S7Q | 2.83
S7L | 2.33
S7C | 2.56
S7W | 2.46
S7I | 2.47
S7G | 2.75
G13P | 3.31
G13R | 2.7
G13F | 2.28
G13L | 2.23
G13A | 2.88
G13W | 1.79
G13I | 1.81
G13H | 2.23
G13Q | 3.11
G13D | 2.88
G13Y | 2.14
G13T | 2.46
G13N | 2.64
G13K | 2.44
G13S | 2.36

Variant | protein stability index
G13C | 2.37
G13M | 2.5
G13V | 1.98
G13E | 3.12
L8F | 2.57
L8Q | 3.32
L8I | 2.47
L8S | 3.48
L8W | 1.95
L8N | 3.34
L8P | 3.11
L8Y | 2.97
L8C | 3.3
L8H | 3.26
L8G | 3.21
L8E | 3.2
L8V | 3.15
L8M | 2.86
L8R | 3.09
L8T | 3.42
L8D | 3.35
L8K | 3.42
L8A | 3.46
R21Q | 2.77

Variant | protein stability index
R21W | 2.1
R21K | 2.61
R21L | 1.9
R21C | 2.62
R21Y | 2.03
R21V | 2.09
R21N | 2.96
R21A | 2.77
R21F | 2.03
R21S | 2.95
R21T | 2.61
R21E | 2.64
R21I | 1.63
R21D | 3.46
R21G | 3.1
R21H | 3.08
R21M | 2.1
R21P | 3.53
I19M | 3.06
I19T | 3.41
I19L | 2.86
I19F | 2.3
I19A | 3.73
I19W | 2.91

Variant | protein stability index
I19N | 3.92
I19H | 3.85
I19V | 3.16
I19P | 4.17
I19Q | 4
I19Y | 2.75
I19R | 3.7
I19G | 3.67
I19S | 3.33
I19E | 3.9
I19D | 3.89
I19C | 3.62
I19K | 3.66
L23D | 3.75
L23V | 3.39
L23T | 3.4
L23F | 3.14
L23P | 3.82
L23M | 2.74
L23Y | 2.68
L23I | 2.63
L23W | 2.85
L23N | 3.47
L23K | 4.52

Variant | protein stability index
L23A | 3.74
L23C | 3.54
L23G | 3.62
L23H | 3.19
L23R | 3.47
L23Q | 4.17
L23E | 3.98
L23S | 3.67
S11I | 2.52
S11C | 2.34
S11D | 3.03
S11L | 2.51
S11M | 2.8
S11Y | 2.58
S11K | 2.61
S11W | 2.4
S11V | 2.32
S11F | 2.57
S11Q | 3.33
S11H | 2.56
S11N | 2.96
S11G | 2.9
S11E | 2.55
S11A | 2.57

Variant | protein stability index
S11P | 2.36
S11T | 2.79
S11R | 2.71
V12T | 3.13
V12N | 2.95
V12E | 3.36
V12L | 2.5
V12W | 2.47
V12S | 3.54
V12Q | 3.34
V12I | 2.51
V12A | 3.26
V12P | 2.94
V12H | 3.28
V12C | 2.55
V12Y | 2.36
V12F | 2.56
V12M | 2.26
V12R | 2.86
V12G | 3.12
V12K | 3.54
V12D | 3.63
F20G | 4.07
F20Q | 3.97

Variant | protein stability index
F20I | 2.88
F20W | 2.35
F20N | 4.33
F20A | 2.82
F20C | 3.32
F20E | 3.53
F20K | 4.46
F20T | 3.6
F20Y | 2.71
F20V | 2.55
F20H | 3.46
F20P | 4.07
F20D | 4.48
F20L | 2.37
F20M | 3.1
F20S | 3.77
F20R | 4.23
L16N | 3.62
L16C | 2.68
L16G | 3.38
L16Y | 2.78
L16Q | 3.69
L16K | 3.39
L16R | 3.38

Variant | protein stability index
L16V | 2.93
L16M | 2.92
L16I | 2.56
L16H | 3.09
L16S | 3.29
L16E | 3.26
L16D | 4.26
L16T | 3.23
L16A | 2.99
L16F | 3.35
L16W | 2.41
L16P | 3.52
C24E | 3.54
C24F | 2.99
C24G | 2.54
C24A | 2.87
C24K | 3.11
C24I | 2.32
C24D | 3.48
C24H | 2.88
C24L | 2.16
C24N | 3.33
C24M | 2.7
E9H | 2.35

Variant | protein stability index
E9C | 2.25
E9D | 2.77
E9F | 2.05
E9A | 2.97
E9S | 2.3
E9N | 2.3
E9G | 2.72
E9I | 2.14
E9T | 2.54
E9V | 2.14
E9K | 2.5
E9Q | 2.44
E9Y | 1.96
E9R | 2.41
E9W | 2.09
E9M | 2.28
E9P | 2.18
E9L | 2.93
E10W | 2.21
E10K | 2.5
E10A | 2.64
E10G | 2.82
E10F | 1.92
E10I | 1.77

Variant | protein stability index
E10R | 2.24
E10S | 2.79
E10V | 2.09
E10D | 3.09
E10N | 2.78
E10H | 2.25
E10M | 2.24
E10T | 2.55
E10L | 2.07
E10Q | 2.67
E10C | 1.96
E10P | 2.36
E10Y | 2.23
Y17I | 2.62
Y17H | 3.69
Y17P | 4.11
Y17S | 2.85
Y17G | 3.59
Y17M | 2.85
Y17K | 4.07
Y17Q | 2.92
Y17L | 2.28
Y17W | 2.84
Y17F | 2.73

Variant | protein stability index
Y17A | 3.32
Y17T | 3.22
Y17V | 2.68
Y17N | 3.46
Y17R | 2.61
Y17E | 3.33
Y17D | 4.25
Y17C | 3.12
N22P | 2.54
N22V | 1.55
N22W | 1.68
N22L | 3.01
N22G | 2.19
N22K | 2.56
N22R | 2.96
N22H | 2.64
N22Q | 2.42
N22M | 2.33
N22F | 2.94
N22Y | 2.06
N22D | 3.4
N22I | 2.05
N22C | 2.83
N22A | 2.26

Variant | protein stability index
N22S | 2.79
N22T | 2.15
N22E | 2.8
P15H | 2.24
P15D | 3.32
P15Y | 1.74
P15T | 2.06
P15V | 1.77
P15N | 2.29
P15S | 2.02
P15A | 1.25
P15E | 2.14
P15K | 1.93
P15Q | 1.52
P15R | 2.12
P15F | 1.97
P15G | 2
P15M | 2
P15W | 2.06
P15L | 1.85
P15C | 2.05
P15I | 2.17
